B1: library; numbered along this chain (parent)
chain: MATDAALRRLLRLHRTEIAVAVDSAFPLLHALADHDVVPEDKFQETLHLKEKEGCPQAFHALLSWLLTQDSTAILDFWRVLFKDYNLERYGRLQPILDSFPKDVDLSQPRKGRKPPAVPKALVPPPRLPTKRKASEEARAAAPAALTPRGTASPGSQLKAKPPKKPESSAEQQRLPLGNGIQTMSASVQRAVAMSSGDVPGARGAVEGILIQQVFESGGSKKCIQVGGEFYTPSKFEDSGSGKNKARSSSGPKPLVRAKGAQGAAPGGGEARLGQQGSVPAPLALPSDPQLHQKNEDECAVCRDGGELICCDGCPRAFHLACLSPPLREIPSGTWRCSSCLQATVQEVQPRAEEPRPQEPPVETPLPPGLRSAGEEVRGPPGEPLAGMDTTLVYKHLPAPPSAAPLPGLDSSALHPLLCVGPEGQQNLAPGARCGVCGDGTDVLRCTHCAAAFHWRCHFPAGTSRPGTGLRCRSCSGDVTPAPVEGVLAPSPARLAPGPAKDDTASHEPALHRDDLESLLSEHTFDGILQWAIQSMARPAAPFPS

Variants of: B1
Experiment: AIRE transcriptional activation functional score (insulin promoter-GFP; nonsense median 0, synonymous median 1) (normalised score); higher = higher AIRE activity (more reporter activation)
Conditions: with insulin promoter-GFP reporter in HEK293
How it was run: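 Flp-In T-REx HEK293 landing-pad cells carrying an insulin core promoter-GFP reporter received codon-optimized AIRE NNN-codon libraries (three regions) through Bxb1 recombinase. Sorting of mCherry+, BFP− integrants took place at day 7, followed by 7 days of expansion and tile-sequencing of top 10% GFP and unselected integrant populations. A functional score was derived from select versus non-select variant enrichment with wild type subtracted. Values from variants reaching 10 counts per million in non-select were set to nonsense median 0 and synonymous median 1 and averaged over biological replicates.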

AIRE transcriptional activation functional score of substitutions, site by site:
T344: R 1.08; G 1.16; A 0.851; M 1.37; E 0.714; W 1.1; N 0.983; F 1.26; S 1.06; L 0.939; I 0.748; P 1.07; Q 1.12; D 0.882; C 1.26; Y 0.912; H 1.29; K 1.16; V 0.896
Q342: G 0.963; T 0.546; H 0.916; Y 1.06; K 1.04; A 0.362; R 0.876; S 1.13; C 1.09; W 1.73; N 0.925; I 1; L 0.929; E 0.971; F 1.08; P 0.83; D 0.916; M 1.09; V 0.754
A343: S 0.938; N 0.601; Q 0.485; P 0.957; G 0.94; W 1.93; T 1.13; C 0.944; D 1.18; L 1.38; I 1.36; H 1.02; R 0.816; V 1.03; F 1.38; Y 1.09; M 1.59; K 0.609; E 0.95
E347: R 1.23; C 1.15; G 1.17; P 1.14; A 1; M 1.06; K 1.11; W 1.24; V 0.892; I 1.15; Y 1.43; T 1.26; F 1.28; N 0.719; D 1.21; L 1.16; H 1.32; Q 0.943; S 1.12
P350: T 0.866; Q 0.912; Y 0.767; V 1.01; D 1.09; F 1.25; W 1.02; N 1.37; H 1.47; L 1.17; K 0.93; S 0.947; G 1.14; A 1.13; R 1.18; E 1.04; I 1.14; M 1.11; C 0.761
V345: M 1.28; S 0.912; F 1.36; P 1.06; Y 1.02; I 0.913; R 1.14; C 1.04; W 1.52; L 1.03; H 0.756; D 1.02; G 1.12; Q 0.581; E 0.982; N 0.989; K 1.22; T 1.24; A 0.719
E353: R 1.14; I 1.13; Y 1.42; Q 1.18; F 1.25; N 0.963; D 0.963; G 0.959; A 1.07; C 1.2; L 1.18; P 1.12; T 1.19; W 1.17; V 1.15; K 1.17; M 1.19; H 0.837; S 1.14
Q358: C 0.97; D 0.761; K 1.02; H 1.12; G 1.34; A 0.941; E 1.19; L 1.14; F 1.16; I 1.1
L341: Q 1.08; W 1.32; R 1.16; M 0.759; Y 0.945; H 0.986; D 0.832; A 0.936; E 0.957; V 0.917; T 1.03; C 1.24; K 0.983; N 1.02; G 1.11; P 0.971; F 1.01; S 0.767; I 1.21
P357: G 0.884; S 0.935; H 0.925; R 1.07; Q 1.06; W 1.17; Y 1.34; D 0.863; E 1.05; N 1.32; V 0.974; T 1.1; M 1.29; F 1.27; C 1.23; K 0.713; A 1.01; L 1.2; I 1.11
Q346: P 1.12; H 1.3; T 1.02; K 0.899; I 1.01; F 0.819; R 1.03; E 1.18; C 0.884; W 1.73; S 1.06; L 1.2; M 1.29; N 0.737; G 1.13; D 1.46; A 0.913; Y 0.906; V 0.378
C340: Y 0.989
P355: A 0.981; L 1.11; K 1.2; T 1.09; I 1.01; D 1.13; C 1.05; Q 1.24; G 1.06; H 1.08; N 1.11; M 0.914; S 0.93; W 1.32; E 0.969; V 1; Y 1.49; R 1.04; F 1
V348: I 1.08; Q 0.65; P 0.929; N 1.08; T 1.04; S 0.865; K 0.974; M 0.509; H 1.33; L 1.09; E 0.956; W 1.37; D 1.01; Y 0.929; G 1.04; R 1.19; A 1.1; F 1; C 0.781
R351: Q 1.44; N 1.56; D 0.673; F 1.16; C 1.19; S 1.01; A 1.34; Y 0.693; V 0.812; H 0.73; I 0.573; W 0.833; G 1.02; T 0.615; L 0.985; M 1.07; K 0.457; P 1.02; E 0.835
A352: Q 0.697; I 1.08; K 0.997; D 1.08; T 1.32; V 0.882; E 0.933; H 0.902; M 1.13; S 1; L 1.06; P 0.925; Y 0.899; R 0.916; F 1.38; W 1.31; N 1.01; C 1.1; G 0.813
E354: N 0.818; W 1.16; G 1.13; F 1.33; Q 0.948; T 0.99; L 1.05; M 1.47; V 1.08; S 0.901; A 0.949; C 1.16; D 1.22; Y 1.38; I 1.13; K 0.669; P 0.835; H 1.1; R 1.14
R356: C 1.05; Q 0.912; Y 1.03; I 1.03; H 0.935; E 1.09; T 0.752; L 0.928; S 0.974; K 0.935; N 1.01; G 1.06; W 0.964; A 0.824; F 1.15; V 0.975; M 1.16; D 1.05; P 0.873
Q349: L 1.1; M 0.852; A 0.994; F 0.896; K 1.06; W 1.55; D 0.985; T 1.12; R 0.95; E 1.04; C 1.1; G 1.14; N 0.61; V 1.13; Y 1.08; H 0.951; P 0.847; I 1.05; S 1.26
